Consider 150 variants from publication PMC11480844 (2024).

B1: H2-Kb / Ed46 (parent complex)
chain 1: AQSVTQPDARVTVSEGASLQLRCKYSYFGTPYLFWYVQYPRQGLQLLLKYYPGDPVVQGVNGFEAEFSKSNSSFHLRKASVHWSDWAVYFCAVGRTGGYKVVFGSGTRLLVSP
chain 2: DSGVVQSPRHIIKEKGGRSVLTCIPISGHSNVVWYQQTLGKELKFLIQHYEKVERDKGFLPSRFSVQQFDDYHSEMNMSALELEDSAMYFCASSPRHSDYTFGSGTRLLVI
chain 3: not shown
chain 4: IQKTPQIQVYSRHPPENGKPNILNCYVTQFHPPHIEIQMLKNGKKIPKVEMSDMSFSKDWSFYILAHTEFTPTETDTYACRVKHDSMAEPKTVYWDRDM
chain 5: SIINFEKL
B2: H2-Kb / Ed31 (parent complex)
chain 1: GQQVQQSPASLVLQEGENAELQCNFSTSLNSMQWFYQRPGGSLVSLFYNPSGTKHSGRLTSTTVIKERRSSLHISSSQTTDSGTYLCALEGNYAQGLTFGLGTRVSVFP
chain 2: ETAVFQTPNYHVTQVGNEVSFNCKQTLGHDTMYWYKQDSKKLLKIMFSYNNKQLIVNETVPRRFSPQSSDKAHLNLRIKSVEPEDSAVYLCASRSAGEQYFGPGTRLTVL
chain 3: not shown
chain 4: B1 chain 4
chain 5: SIINFEKL
Further: test concentration or dose not given here.

The first test covers variants of B1. The test can be described thus: % of reporter cells activated (NFAT-GFP), raw.
As for chain 5 I2W, the ratio to parent is 0.693.
Still for that read-out and setting: for chain 5 I2A the value was 1.4.
In the case of chain 5 I2E, the ratio to parent is 1.11.
Still for that read-out and setting: for chain 5 I2Q the value was 0.775; for chain 5 I2R, 1.11; for chain 5 I2D, 1.37.
Turning to chain 5 I2N, the ratio to parent came to 0.898.
The same measure, in the same setting: for chain 5 I2Y the value was 0.656; for chain 5 I2F, 1.13; for chain 5 I2T, 1.39.
With chain 5 I2K, the ratio to parent came to 1.12.
Regarding chain 5 I2C, the ratio to parent was determined as 1.26.
Turning to chain 5 I2H, the ratio to parent came to 0.785.
In the case of chain 5 I2L, the ratio to parent amounted to 1.38.
As for chain 5 I2G, the ratio to parent amounted to 1.2.
Same read-out and setting: under chain 5 I2M stands 1.17; under chain 5 I2P, 1.23.
Consider chain 5 F5N, for which the ratio to parent stood at 0.955.
As for chain 5 F5E, the ratio to parent was 0.65.
With chain 5 F5A, the ratio to parent was 1.01.
With chain 5 F5T, the ratio to parent came to 1.38.
On the same count and under the same terms, for chain 5 F5M the value was 1.02; for chain 5 F5W, 1.2; for chain 5 F5I, 1.02.
Turning to chain 5 F5R, the ratio to parent was found to be 1.18.
chain 5 F5K: the ratio to parent is 0.845.
Still for that read-out and setting: for chain 5 F5P the value was 1.17.
Consider chain 5 F5D, for which the ratio to parent worked out at 0.591.
On the same count and under the same terms, for chain 5 F5C the value was 1.19; for chain 5 F5L, 1.17.
Turning to chain 5 F5S, the ratio to parent was determined as 1.32.
On to chain 5 F5Q, for which the ratio to parent stood at 0.757.
For the variant chain 5 F5G, the ratio to parent was determined as 0.916.
With chain 5 F5Y, the ratio to parent is 1.3.
Same read-out and setting: under chain 5 N4R stands 0.317; under chain 5 N4Q, 0.00528; under chain 5 N4H, 0.036.
In the case of chain 5 N4I, the ratio to parent was determined as 0.0714.
For the variant chain 5 N4K, the ratio to parent was found to be 0.027.
Turning to chain 5 N4P, the ratio to parent was 0.00841.
With chain 5 N4L, the ratio to parent stood at 0.0593.
For the variant chain 5 N4V, the ratio to parent is 0.00323.
In the case of chain 5 N4Y, the ratio to parent came to 0.0186.
Take chain 5 N4A: the ratio to parent worked out at 0.0038.
As for chain 5 N4W, the ratio to parent stood at 0.0119.
For the variant chain 5 N4G, the ratio to parent came out at 0.00595.
Still for that read-out and setting: under chain 5 N4D stands 0.009; under chain 5 N4M, 0.00538.
On the same count and under the same terms, for chain 5 N4T the value was 0.00841; for chain 5 N4E, 0.0143; for chain 5 N4C, 0.0356.
In the case of chain 5 E6H, the ratio to parent was found to be 0.25.
For the variant chain 5 E6K, the ratio to parent amounted to 0.746.
With chain 5 E6I, the ratio to parent is 0.0119.
chain 5 E6Y: the ratio to parent is 0.119.
For the variant chain 5 E6F, the ratio to parent came to 0.0998.
With chain 5 E6P, the ratio to parent was 0.329.
For the variant chain 5 E6C, the ratio to parent was 0.0448.
Same read-out and setting: under chain 5 E6N stands 0.464.
With chain 5 E6L, the ratio to parent is 0.16.
Regarding chain 5 E6T, the ratio to parent is 0.0683.
For the variant chain 5 E6W, the ratio to parent stood at 0.038.
As for chain 5 E6A, the ratio to parent came to 0.534.
For the variant chain 5 E6M, the ratio to parent is 0.398.
Still for that read-out and setting: under chain 5 E6R stands 0.632.
Regarding chain 5 S1H, the ratio to parent came to 0.973.
Turning to chain 5 S1Q, the ratio to parent turned out to be 0.0873.
As to chain 5 S1D, the ratio to parent was 0.675.
On to chain 5 S1G, for which the ratio to parent stood at 0.39.
For the variant chain 5 S1P, the ratio to parent is 0.0427.
chain 5 S1R: the ratio to parent amounted to 0.223.
As to chain 5 S1L, the ratio to parent was 0.0092.
In the case of chain 5 S1W, the ratio to parent came out at 0.151.
Turning to chain 5 S1C, the ratio to parent stood at 0.0634.
In the case of chain 5 S1Y, the ratio to parent amounted to 0.795.
chain 5 S1T: the ratio to parent is 0.278.
In the case of chain 5 S1V, the ratio to parent is 0.0256.
For chain 5 S1A, the ratio to parent was 0.746.
Regarding chain 5 S1N, the ratio to parent came to 0.0395.
On the same count and under the same terms, under chain 5 L8P stands 0.718; under chain 5 L8A, 0.861; under chain 5 L8K, 1.09.
Same read-out and setting: under chain 5 L8F stands 1.06.
In the case of chain 5 L8V, the ratio to parent came out at 0.886.
As for chain 5 L8E, the ratio to parent came to 0.691.
In the case of chain 5 L8Q, the ratio to parent was found to be 0.977.
Consider chain 5 L8I, for which the ratio to parent stood at 1.07.
Same read-out and setting: under chain 5 L8Y stands 1.07; under chain 5 L8C, 0.613; under chain 5 L8W, 0.918.
For the variant chain 5 L8G, the ratio to parent turned out to be 0.703.
Take chain 5 L8R: the ratio to parent is 0.918.
With chain 5 K7M, the ratio to parent worked out at 0.0863.
Turning to chain 5 K7N, the ratio to parent was 0.138.
chain 5 K7S: the ratio to parent is 0.689.
Consider chain 5 K7C, for which the ratio to parent was determined as 0.0252.
Take chain 5 K7A: the ratio to parent stood at 0.383.
For chain 5 K7F, the ratio to parent came out at 0.0438.
As for chain 5 K7Q, the ratio to parent worked out at 0.0775.
The same measure, in the same setting: for chain 5 K7E the value was 0.00395.
Turning to chain 5 K7L, the ratio to parent is 0.178.
Still for that read-out and setting: under chain 5 K7W stands 0.628; under chain 5 K7I, 0.2.
Still for that read-out and setting: under chain 5 K7Y stands 0.446; under chain 5 K7D, 0.0219.
chain 5 K7T: the ratio to parent came out at 0.291.
Consider chain 5 I3W, for which the ratio to parent amounted to 0.64.
With chain 5 I3P, the ratio to parent is 0.669.
In the case of chain 5 I3E, the ratio to parent was determined as 0.47.
In the case of chain 5 I3R, the ratio to parent was found to be 0.245.
As for chain 5 I3L, the ratio to parent turned out to be 1.05.
chain 5 I3A: the ratio to parent turned out to be 0.139.
With chain 5 I3F, the ratio to parent was 0.726.
Take chain 5 I3H: the ratio to parent came to 0.998.
Regarding chain 5 I3S, the ratio to parent is 1.06.
The same measure, in the same setting: for chain 5 I3M the value was 0.446.
As for chain 5 I3D, the ratio to parent is 0.17.
As for chain 5 I3Q, the ratio to parent is 0.383.
In the case of chain 5 I3G, the ratio to parent is 0.202.
Consider chain 5 I3T, for which the ratio to parent was determined as 0.301.
For the variant chain 5 I3K, the ratio to parent was determined as 0.924.
For chain 5 I3C, the ratio to parent was 0.689.
For chain 5 I3Y, the ratio to parent was determined as 1.08.
Turning to chain 5 I3V, the ratio to parent worked out at 0.724.

Another test covers variants of B2. Nature of the test: % of reporter cells activated (NFAT-GFP), raw.
For chain 5 I3V, the ratio to parent is 0.982.
For chain 5 I3W, the ratio to parent amounted to 0.355.
Turning to chain 5 I3D, the ratio to parent stood at 0.375.
As to chain 5 S1N, the ratio to parent was found to be 0.163.
For chain 5 S1M, the ratio to parent came to 0.898.
Take chain 5 S1W: the ratio to parent amounted to 0.498.
Still for that read-out and setting: under chain 5 S1Q stands 0.757.
As for chain 5 L8V, the ratio to parent amounted to 0.812.
On to chain 5 L8C, for which the ratio to parent was determined as 0.602.
On the same count and under the same terms, for chain 5 L8E the value was 0.687.
As for chain 5 L8P, the ratio to parent was found to be 0.779.
The same measure, in the same setting: for chain 5 F5G the value was 0.529; for chain 5 F5H, 0.892.
chain 5 F5V: the ratio to parent turned out to be 0.859.
With chain 5 F5L, the ratio to parent came out at 0.821.
For the variant chain 5 F5W, the ratio to parent worked out at 0.829.
Regarding chain 5 F5M, the ratio to parent came out at 0.917.
Take chain 5 I2C: the ratio to parent is 1.07.
Turning to chain 5 I2W, the ratio to parent is 0.863.
Same read-out and setting: under chain 5 I2Q stands 0.897; under chain 5 I2R, 0.851; under chain 5 E6R, 0.00349.
The same measure, in the same setting: for chain 5 E6M the value was 0.25; for chain 5 E6A, 0.0173; for chain 5 K7M, 0.104.
On the same count and under the same terms, under chain 5 N4F stands 0.127.
